# US20080050776A1
# Key:
# [1] = target: p75 neurotrophin receptor (p75NTR) (UniProt P07174); assay: cell-based or functional assay
# Sortilin co-receptor = Sortilin co-receptor (UniProt O54861); assay: cell-based or functional assay
# Chain of UniProt O54861 (O54861 74-825 limits assumed): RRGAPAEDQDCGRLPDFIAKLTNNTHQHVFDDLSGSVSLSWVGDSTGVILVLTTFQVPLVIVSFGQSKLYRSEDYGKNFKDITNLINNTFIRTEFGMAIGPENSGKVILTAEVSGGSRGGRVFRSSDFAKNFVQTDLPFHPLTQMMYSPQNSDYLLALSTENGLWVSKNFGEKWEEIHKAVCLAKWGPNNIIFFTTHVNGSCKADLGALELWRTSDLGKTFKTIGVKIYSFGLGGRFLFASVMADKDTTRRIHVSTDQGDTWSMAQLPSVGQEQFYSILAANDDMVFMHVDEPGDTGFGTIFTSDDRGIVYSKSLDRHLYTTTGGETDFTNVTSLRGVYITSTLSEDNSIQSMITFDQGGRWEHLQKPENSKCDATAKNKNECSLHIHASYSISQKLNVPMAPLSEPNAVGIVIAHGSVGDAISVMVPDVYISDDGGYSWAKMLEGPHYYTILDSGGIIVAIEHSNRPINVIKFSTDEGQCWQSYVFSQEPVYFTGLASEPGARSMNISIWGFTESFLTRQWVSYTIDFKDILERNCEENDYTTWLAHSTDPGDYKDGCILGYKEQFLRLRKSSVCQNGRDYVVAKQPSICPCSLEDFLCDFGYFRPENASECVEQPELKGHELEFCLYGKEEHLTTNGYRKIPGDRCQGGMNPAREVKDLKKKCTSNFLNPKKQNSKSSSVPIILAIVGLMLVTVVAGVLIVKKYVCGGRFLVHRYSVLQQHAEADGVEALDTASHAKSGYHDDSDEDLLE
# Chain of UniProt P07174 (P07174 30-425): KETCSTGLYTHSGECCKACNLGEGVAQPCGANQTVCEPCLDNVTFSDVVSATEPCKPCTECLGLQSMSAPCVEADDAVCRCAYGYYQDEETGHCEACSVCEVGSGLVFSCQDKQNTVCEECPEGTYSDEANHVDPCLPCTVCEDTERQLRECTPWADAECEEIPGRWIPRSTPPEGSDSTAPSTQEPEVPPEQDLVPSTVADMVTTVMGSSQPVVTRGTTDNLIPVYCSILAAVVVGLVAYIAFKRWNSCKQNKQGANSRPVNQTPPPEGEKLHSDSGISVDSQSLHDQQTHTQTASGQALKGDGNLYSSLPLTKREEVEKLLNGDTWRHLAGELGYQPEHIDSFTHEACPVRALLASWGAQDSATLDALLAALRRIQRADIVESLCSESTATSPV
substance,measurement,setting,value
proNGF123 (mutated mouse proNGF with mutations at all three processing sites) (ligand),"cell death of PC-12 cells, trypan blue analysis 72 hours post treatment (2 nM)",[1],> 90%
same,"cell death of PC-12 cells, trypan blue analysis 72 hours post treatment (2 nM)",Sortilin co-receptor,> 90%
